Experimental data taken from the Human Domainome abundance scans (Beltran et al. 2025).
± gives the uncertainty stated by the source.

B1: Lysine-specific demethylase 2B, residues 656 to 722; numbered along this chain, Q8NHM5 (parent)
chain: LPHTAVCLVCGEAGKEDTVEEEEGKFNLMLMECSICNEIIHPGCLKIKESEGVVNDELPNCWECPKC
B2: POU domain, class 3, transcription factor 2, residues 262 to 338; numbered along this chain, P20265 (parent)
chain: EDTPTSDDLEQFAKQFKQRRIKLGFTQADVGLALGTLYGNVFSQTTICRFEALQLSFKNMCKLKPLLNKWLEEADSS

Variants of: B1
Experiment: abundance fitness (aPCA) (normalised: wild type 0, dead -1); higher = more abundant; growth selection in yeast, the domain comes from the species named
Details: Homo sapiens

Abundance fitness of substitutions, site by site:
S34: W -0.545 ± 0.15
N60: W -0.176 ± 0.1 | P -0.128 ± 0.16 | G -0.062 ± 0.079
V6: H 0.409 ± 0.22 | A -0.557 ± 0.25 | K 0.194 ± 0.1
E49: S -0.061 ± 0.088 | N 0.262 ± 0.45 | I -0.244 ± 0.19 | Q -0.079 ± 0.073 | W -0.235 ± 0.12 | G 0.008 ± 0.051 | D -0.198 ± 0.21
E51: P -0.328 ± 0.15 | S -0.131 ± 0.098 | W -0.14 ± 0.12 | T 0.072 ± 0.096
T18: C -0.213 ± 0.14 | M -0.092 ± 0.18 | G -0.399 ± 0.088 | N -0.026 ± 0.27
E16: V -0.258 ± 0.094 | M -0.148 ± 0.13 | S -0.204 ± 0.13 | I -0.467 ± 0.22 | D -0.609 ± 0.19 | C -0.556 ± 0.21 | N -0.646 ± 0.29 | L -0.283 ± 0.071 | P -0.043 ± 0.1
K46: T 0.211 ± 0.19 | I -0.311 ± 0.15 | Y 0.042 ± 0.43 | H -0.532 ± 0.28 | Q 0.195 ± 0.12
K15: E -0.175 ± 0.17 | N -0.751 ± 0.37 | T -0.202 ± 0.13 | Y -0.583 ± 0.22
V19: D -0.459 ± 0.23 | L 0.017 ± 0.11
M29: R 0.278 ± 0.079
N37: G 0.092 ± 0.059
C61: S 0.018 ± 0.1 | A 0.053 ± 0.096 | M -0.12 ± 0.12 | D -0.475 ± 0.37 | G -0.192 ± 0.09 | I -0.349 ± 0.26
I35: D -0.323 ± 0.2 | K -0.057 ± 0.12 | Y -0.548 ± 0.28 | W -0.643 ± 0.12
P59: Q -0.024 ± 0.26 | K 0.076 ± 0.11 | T -0.012 ± 0.13 | D -0.424 ± 0.24 | M -0.183 ± 0.2
T4: A -0.889 ± 0.26 | M -0.878 ± 0.24
L45: D -0.483 ± 0.17 | W -0.493 ± 0.15 | S 0.081 ± 0.097
W62: I -1 ± 0.39 | Q -0.601 ± 0.28 | N -0.541 ± 0.13 | T -0.426 ± 0.15 | V -0.465 ± 0.074 | E -0.439 ± 0.11 | G -0.789 ± 0.1
E63: P -0.968 ± 0.32 | W -0.386 ± 0.074
E32: C 0.088 ± 0.099 | Y -0.668 ± 0.22
I40: T 0.126 ± 0.079 | L -0.154 ± 0.072
P2: G 0.588 ± 0.14 | W 0.667 ± 0.14 | N 0.758 ± 0.17 | T 0.844 ± 0.1 | Q 0.184 ± 0.15

Variants of: B2
Experiment: as above
Details: Homo sapiens

Abundance fitness: each site, then its substitutions
S77: N -0.169 ± 0.11 | L -0.028 ± 0.05 | T 0.073 ± 0.049 | E -0.016 ± 0.051 | D -0.003 ± 0.064 | I -0.031 ± 0.077 | H -0.011 ± 0.079 | W -0.105 ± 0.065 | P 0.003 ± 0.041 | M -0.17 ± 0.078 | G 0.061 ± 0.036 | A 0.115 ± 0.038 | F -0.155 ± 0.13 | V 0.008 ± 0.042 | K -0.097 ± 0.074 | C -0.184 ± 0.067 | R 0.054 ± 0.045
D75: R -0.058 ± 0.028 | S 0.032 ± 0.033 | T -0.014 ± 0.042 | N -0.032 ± 0.059 | G -0.032 ± 0.027 | L -0.133 ± 0.034 | K -0.058 ± 0.047 | C -0.161 ± 0.049 | W -0.085 ± 0.034 | P -0.106 ± 0.049 | I -0.089 ± 0.092 | Y -0.046 ± 0.056 | H -0.081 ± 0.06 | V -0.135 ± 0.031 | M -0.022 ± 0.037 | A 0.009 ± 0.031 | F -0.3 ± 0.1 | E 0.071 ± 0.034
S76: Y -0.14 ± 0.068 | H 0.023 ± 0.064 | W -0.163 ± 0.034 | V 0.01 ± 0.032 | A 0.05 ± 0.031 | G 0.004 ± 0.026 | Q 0.055 ± 0.047 | L -0.099 ± 0.033 | I -0.153 ± 0.063 | K 0.021 ± 0.046 | N 0.013 ± 0.05 | R 0.028 ± 0.028 | F -0.161 ± 0.056 | P -0.012 ± 0.044 | M -0.021 ± 0.045 | T -0.019 ± 0.043 | E 0.002 ± 0.038 | C -0.075 ± 0.043 | D 0.042 ± 0.048
A74: Y -0.151 ± 0.069 | H -0.032 ± 0.067 | C 0.034 ± 0.046 | K -0.037 ± 0.051 | Q -0.046 ± 0.055 | W -0.172 ± 0.036 | E -0.065 ± 0.037 | R -0.036 ± 0.029 | L -0.09 ± 0.037 | T -0.026 ± 0.05 | G -0.331 ± 0.03 | V 0.041 ± 0.034 | P -0.274 ± 0.068 | S -0.168 ± 0.039 | M -0.088 ± 0.049
E73: N -0.192 ± 0.34 | P -0.416 ± 0.17 | G -0.036 ± 0.05 | T 0.089 ± 0.073 | D 0.06 ± 0.1 | I -0.009 ± 0.12 | L -0.013 ± 0.06 | F -0.057 ± 0.14 | S -0.071 ± 0.068 | R -0.147 ± 0.066 | H -0.218 ± 0.27 | Q 0.159 ± 0.098 | W -0.076 ± 0.073 | Y 0.129 ± 0.14 | V -0.067 ± 0.073 | K 0.118 ± 0.089
